Experiments:
[1] = tested on: T1, Spo0A (Paenibacillus polymyxa SC2), ORF:894240d5; test: EMSA; conditions: EMSA: Beyotime chemiluminescent EMSA kit buffer (composition and pH not stated), 10 uL, 20 min at room temperature, native PAGE in 0.5x TBE, 70 V for 70 min …
T1 sequence: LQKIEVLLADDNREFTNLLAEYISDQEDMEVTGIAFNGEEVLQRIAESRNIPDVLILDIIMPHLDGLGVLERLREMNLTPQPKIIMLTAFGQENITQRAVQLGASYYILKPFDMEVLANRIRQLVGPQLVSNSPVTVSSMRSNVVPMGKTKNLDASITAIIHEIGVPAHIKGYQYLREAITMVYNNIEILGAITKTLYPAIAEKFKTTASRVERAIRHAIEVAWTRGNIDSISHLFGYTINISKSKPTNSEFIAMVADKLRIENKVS

[2] = tested on: T2, AbrB3 (Paenibacillus polymyxa SC2), ORF:7049d318; test: EMSA; conditions: EMSA: Beyotime chemiluminescent EMSA kit buffer (composition and pH not stated), 10 uL, 20 min at room temperature, native PAGE in 0.5x TBE, 70 V for 70 min …
T2 sequence: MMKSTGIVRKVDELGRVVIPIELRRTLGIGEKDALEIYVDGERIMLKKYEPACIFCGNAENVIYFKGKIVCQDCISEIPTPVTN

Row | Sequence | binding [1] | binding [2]
1 | ATGTAATTCACAGCCCCTTAACGTATATTACTAAAAATTTCTTTGCCAACTAGAATATTGATTCTGAATATATATCGGCAATCCCCTATAATTCCTCAACACGTTTTCCACCATTAAACAAACATATTATGGGAATTACTTGTATACTTTTCAACAGTTTACTTAATATATGCGATTGCTTCTCTAAGCCTATTCTTTTTTATCATAATTATTTAGTATTATAAGGATATAAAAAAGGAGGTTATCAT (double strand) [Pabh] | binds | binds
2 | TGTACTTCCTCCTTATTGAGTGTTATTCCATTGGGACATCTGTTTGCATTAAATAAATATTTCTTGTCGGAGTATATGATTTCGACATCGAATTATGAATTCCTTCTGTCGAAAATTATTTTTATTTATTTTTTTTATTAATTCAATTATAATTGAATTTTTATCTTGCAATTCTGAGTTATTCCCCTGCTTTTCGACAAAAAAATCTTAAGGCCA (double strand) [Pspo0A] | binds | 

— article PMC10782996
